Assay results from US20220072097A1, “PEPTIDES AND METHODS FOR TREATING NEURODEGENERATIVE DISORDERS” (OHIO STATE INNOVATION FOUNDATION, priority 2016, published 2022).

Tests used:
[1] = system: PTPσ; experiment: Solid phase ELISA binding of recombinant APP domains to PTPσ; parameters: species or system human; settings: recombinant proteins, solid phase ELISA binding assay
Protocol: (§1) FIG. 20 Ligand binding site of PTPσ IG1 domain interacts with APP. Binding of human APP fragment (SEQ ID NO:1) with various PTPσ fragments is measured by kinetic ELISA assay. APP fragment corresponds to SEQ ID NO:1, which is a region between E1 and E2 domains. PTPσ fragments used here include IG1,2 (containing IG1 and IG2 domains), ΔLysIG1,2 (containing IG1 and IG2 domains, with lysine 67, 68, 70, 71 mutated to alanine), IG1-FN1 (containing IG1, IG2, IG3 and FN1 domains), ECD (full extracellular domain of PTPσ containing all 3 IG domains and 4 FN domains). Value shown are mean±SEM, n=3 for each group. ***, p≤0.001, Student t test, comparison with the IG1,2.
(§2) Domain regions were subcloned from human APP695 (construct by Denis Selkoe and Tracy Yang labs purchased through Addgene.com) and PTPσ (constructs from Radu Aricescu lab). Recombinant APP and PTPσ proteins were tested in solid phase ELISA binding assays to define the binding regions on each partner. […] Comparing APP binding strength of difference PTPσ fragments, it appears that inclusion of the fibronectin (FN) domains of PTPσ weakens the interaction with APP, likely due to folding of PTPσ that covers up the ligand binding site in its IG1 domain^61.

[2] = biological target: T1, human APP fragment (SEQ ID NO:1) (Homo sapiens, UniProt P05067); experiment: Kinetic ELISA binding of PTPσ fragments to human APP fragment; settings: recombinant proteins, compared with IG1,2
T1 construct: made in house
Protocol: as §1, §2

Molecule	Interaction of APP region with PTPσ [1]	Binding of PTPσ fragment with APP SEQ ID NO:1 [2]
… (protein, recombinant human APP fragment, the region between E1 and E2 domains) AEESDNVDSADAEEDDSDVWWGGADTDYADGSEDKVVEVAEEEEVAEVEEEEADDDEDDEDGDEVEEEAEEPYEEATERTTSIATTTTTTTESVEEVVR	high affinity	
Full PTPσ extracellular domain: full extracellular domain of PTPσ containing all 3 IG domains and 4 FN domains (protein, UniProt Q13332 30-1282, looked up, extracellular domain, full extracellular domain of PTPσ containing all 3 IG domains and 4 FN domains) extracellular domain: EEPPRFIKEPKDQIGVSGGVASFVCQATGDPKPRVTWNKKGKKVNSQRFETIEFDESAGAVLRIQPLRTPRDENVYECVAQNSVGEITVHAKLTVLREDQLPSGFPNIDMGPQLKVVERTRTATMLCAASGNPDPEITWFKDFLPVDPSASNGRIKQLRSETFESTPIRGALQIESSEETDQGKYECVATNSAGVRYSSPANLYVRELREVRRVAPRFSILPMSHEIMPGGNVNITCVAVGSPMPYVKWMQGAEDLTPEDDMPVGRNVLELTDVKDSANYTCVAMSSLGVIEAVAQITVKSLPKAPGTPMVTENTATSITITWDSGNPDPVSYYVIEYKSKSQDGPYQIKEDITTTRYSIGGLSPNSEYEIWVSAVNSIGQGPPSESVVTRTGEQAPASAPRNVQARMLSATTMIVQWEEPVEPNGLIRGYRVYYTMEPEHPVGNWQKHNVDDSLLTTVGSLLEDETYTVRVLAFTSVGDGPLSDPIQVKTQQGVPGQPMNLRAEARSETSITLSWSPPRQESIIKYELLFREGDHGREVGRTFDPTTSYVVEDLKPNTEYAFRLAARSPQGLGAFTPVVRQRTLQSKPSAPPQDVKCVSVRSTAILVSWRPPPPETHNGALVGYSVRYRPLGSEDPEPKEVNGIPPTTTQILLEALEKWTQYRITTVAHTEVGPGPESSPVVVRTDEDVPSAPPRKVEAEALNATAIRVLWRSPAPGRQHGQIRGYQVHYVRMEGAEARGPPRIKDVMLADAQWETDDTAEYEMVITNLQPETAYSITVAAYTMKGDGARSKPKVVVTKGAVLGRPTLSVQQTPEGSLLARWEPPAGTAEDQVLGYRLQFGREDSTPLATLEFPPSEDRYTASGVHKGATYVFRLAARSRGGLGEEAAEVLSIPEDTPRGHPQILEAAGNASAGTVLLRWLPPVPAERNGAIVKYTVAVREAGALGPARETELPAAAEPGAENALTLQGLKPDTAYDLQVRAHTRRGPGPFSPPVRYRTFLRDQVSPKNFKVKMIMKTSVLLSWEFPDNYNSPTPYKIQYNGLTLDVDGRTTKKLITHLKPHTFYNFVLTNRGSSLGGLQQTVTAWTAFNLLNGKPSVAPKPDADGFIMVYLPDGQSPVPVQSYFIVMVPLRKSRGGQFLTPLGSPEDMDLEELIQDISRLQRRSLRHSRQLEVPRPYIAARFSVLPPTFHPGDQKQYGGFDNRGLEPGHRYVLFVLAVLQKSEPTFAASPFSDPFQLDNPDPQPIVDGEEG		nearly lost binding
